Consider 12 molecules from publication PMC4297295, “Structural Conservation Despite Huge Sequence Diversity Allows EPCR Binding by the PfEMP1 Family Implicated in Severe Childhood Malaria” (Cell Host & Microbe, 2015).

For the assay, the target named is T1, endothelial protein C receptor (EPCR), extracellular domain, biotinylated on the N-terminal BAP tag (human, UniProt Q9UNN8 18-210, biotin attached to the N-terminal BAP tag (BirA)).
T1 construct: also called biotinylated recombinant EPCR; ECPR
T1 sequence: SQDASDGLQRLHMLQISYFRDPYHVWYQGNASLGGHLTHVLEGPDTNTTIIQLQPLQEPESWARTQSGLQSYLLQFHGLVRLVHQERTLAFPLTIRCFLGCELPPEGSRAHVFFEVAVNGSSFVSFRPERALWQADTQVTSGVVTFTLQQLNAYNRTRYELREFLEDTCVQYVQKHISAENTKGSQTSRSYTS
The assay can be described thus: SPR. The note with it: both partners purified.

B1: CIDRα1.1 domain of PfEMP1 IT4var19 (domain or fragment)
chain: PDCVVVCEGGNCKEKTEDDNCRSEIIKKILKYETPTPIDVLYSGKGQGLITKKLEDFCSSTTNYEGTNVQKWKCYNKNKDYNNCEMNISSYKDATDPNVMLSVECFHSWAKNLLIDTIRWEHQLKNCINNTNVTDCTSKCIKNCECYEKWIKEKEKEWPQVKGVLKKKDETSHNYYDKLKDVFDRFLFEVKGALDQDEKGKWDQFTKDLEKKFGPSVESAGTANSQDAIELLLDHLNDNATTCKDNNSLAVENC
notes: also called CIDRa1.1 IT4var19_IT4; IT4var19 (1.1)
What is called Kd is a measure of binding affinity in units of concentration. Read a high Kd as a looser complex. In general, koff refers to the rate constant with which the complex falls apart. A low value points to slow dissociation. For orientation: kon means the rate constant with which the complex forms. B1 displayed a Kd of 16 nM, a koff of 0.000364 s⁻¹ and a kon of 22700 M⁻¹ s⁻¹.

B2: CIDRα1.1 domain GA011_ERS009959 (domain or fragment)
chain: PDCVVYCEGGECKENENGDNCRSEIIKEIVRSETPTVIDVLYSGNGQDHITEKLDHFCSSTNKEDRKYYKTLKCYNKNNDYNKCEMISWLYQDPKESNLMLSIQCFYSWAQNLLIDTIRWEHQLKDCINNTNVTDCKSNCNKNCKCYKKWIEQKGSEWQQVKQVLKKKDKNSENYYDKLKDVFDTLYFEVMHELNKGKEKGKSEELTEDLKKKFGPSKKNTDAADSKDAIEFLLDHLNDNAITCKDNNSLAVENCTRTKSNPC
notes: also called CIDRa1.1 GA011_ERS009959; GA011 (1.1)
Molecule B2 showed a Kd of 182 nM, a koff of 7.24e-05 s⁻¹ and a kon of 389 M⁻¹ s⁻¹.

B3: CIDRα1.5a domain GA013_ERS010323 (domain or fragment)
chain: PYCGVDCSNGTCKENGNDDNCGEQQNYNIPKGVDPTNINVLYSVDGHGDIAKRLSTFCNDKNNKNAKNNEIWQCYYIGHKNNQCKIEKSVSQKKHQTKIAPFDYFFDLWVTNLLRDNIDWKNELKNCINNKNTEKCNKECNDNCKCFQSWLNKKEDEWNKITGLLKNKNGILQNYYNKLKSHFDYYFFQVINNINKGEEKWKKLKEDLKKEIDFSKLKTNTGDSQDSIKLLLDHENKNAGTCLKNNPIDSCPKAEPQKSDEKVQPQDTPPNSC
notes: also called CIDRa1.5a GA013_ERS010323; GA013 (1.5a)
B3: binding was put at a Kd of 57 nM, the koff worked out at 0.000832 s⁻¹ and the kon stood at 14700 M⁻¹ s⁻¹.

B4: CIDRα1.6a domain of PfEMP1 HB3var02 (domain or fragment)
chain: PECGVQCSGTTCTPKKVIHPNCKDKETYEPGDAKTTDITVLYSGDEEGDIAQKLQDFCNDKNKENDENYEKWQCYYKSSEINKCQMTRSSKKVPKHRGVMSFYAFFDLWVKNLLIDSINWKNDLTNCINNTNVTDCNKDCNKNCVCFDQWVIKKEEEWKNVNKVFENKNIDLHDYYNKLNKHFEGYFFHVMKELNKEEKWYKLMEDLKEKIDFSKGKADGKNSEGAIKVLFDHLKEIAEKCIHNNSNESCEASTNRTPNPC
notes: also called CIDRa1.6a HB3var02_HB3; HB3var02 (1.6a)
For the molecule B4, the Kd came to 1400 nM, the koff was found to be 0.00139 s⁻¹ and the kon stood at 975 M⁻¹ s⁻¹.

B5: CIDRα1.6b domain GA018_ERS010570 (domain or fragment)
chain: PYCGLDCVGTECTAKEEIYPDCVYNGEYDPPKDVRPTEINVIDSGNAVNISEKLNDFCTNPTNPNDKIYQKWQCYYKSSKVNKCQMTSLTQTLQKHHYVMTFYIFFDLWVKNLLRDSVKWEIELKDCINNTNVTDCNNKCNKNCVCFDKWVKQKKKEWDSIKKLFKTEKDEMKKYYTNINKNFEFFFFRVMYELNNEEAKWNKLMENLRIKIKSSKRNKRTKDSEGVIKVLFDHLKETATICKDNNTNEACVSSQNATTNPC
notes: also called CIDRa1.6b GA018_ERS010570; GA018 (1.6b)
As to B5, binding was characterised by a dissociation constant (Kd) of 15 nM, the koff is 0.000531 s⁻¹ and the kon was determined as 35100 M⁻¹ s⁻¹.

B6: CIDRα1.5a domain 1965-2 (patient isolate 1965) (domain or fragment)
chain: PDCGVECKNGRCKKKTDADGNCGKTQIYDIPKDVTPTDINVLYSGDEYGDIAKRLSEFCRDSKKENGKNTEIWHCYYIGDKHNQCKMEKAVAENKHQTKITTFDFFFDLWIKNLLRDTINWKSQLKNCINNTNKTNCNKTCNENCKCFENWVNQKEKEWNNMKELFKNKNRTSQNYYNKLKSHFDNYFFLVINNVNKGEAKWKKFTDELRNKIDSSKAKNGTSDSQDSIKMLLEHLKEDGTTCTANNPDSICNTPGTDARSLEPASKIEPQNKDTRTNPC
B6 had a Kd of 54 nM, a koff of 0.00103 s⁻¹ and a kon of 18900 M⁻¹ s⁻¹.

B7: CIDRα1.6b domain GA019_ERS010031 (domain or fragment)
chain: PYCGLDCVGKTCTAKQEIYPDCVYNGDYEPPNGAETTEITVLYNDNEGDMSKKLSQFCSNENKENIENYQKWKCYYKDRDDIECEMISSSQKDEKHRKVMIFYNFFDLWVKNLLRDSIKWEIELKDCINNTNVTDCKSVCNVNCECFDKWVKQKEKEWDSIKKLLKKKKNVSKKYYTNINKNFEFFFFRVMYELNNEEAKWNKLMENLRTKINSYKKNKRTKDSEGAIKVLFDHLKETATICKDNNTNEACVSSQNATTNPC
notes: also called CIDRa1.6b GA019_ERS010031; GA019 (1.6b)
Turning to B7, the affinity, expressed as Kd, was 8.8 nM; the koff is 0.000328 s⁻¹; the kon was found to be 37000 M⁻¹ s⁻¹.

B8: CIDRα1.1 domain of PfEMP1 RAJ116var08 (domain or fragment)
chain: PDCVVDCTGGNCKENKKHDNCRSKIIEEILRSEETTDIDVLYSGKGPGAITKKLHDFCSNPNNYKRANVQKWKCYNKNKDYNNCEMNISSYKDATDPNVMLSVQCFYSWAQNLLIDIIRWEHQLKDCINNTNVTDCDNECNKNCECFEKWIKQKQKEWQQVKEVLKKKDENSHNYYNKLRSVFDSFLYQVMFALNNEEKGKWDQFTEDLEKKFESSKKSAGTGNSQDAIEFLLDHLNDNAITCKDNNSKESC
notes: also called CIDRa1.1 RAJ116var08_RAJ116; RAJ116var08 (1.1)
B8 gave a Kd of 1.4 nM, a koff of 3.85e-05 s⁻¹ and a kon of 27900 M⁻¹ s⁻¹.

B9: CIDRα1.1 domain of PfEMP1 IT4var20 (domain or fragment)
chain: PDCVVQCKGGKCTEDKKNDKCRSKIIKKILQSEEPTEIHVLNSDDKQGDITKKLEVFCSSTTNYEGRNVQKWKCYNKNSDYNNCEMNISSYKDSTDANVMLSVECFHSWAKNLLIDTIKWEHQLKNCINNTNVTYCESKCIKNCECYEKWIKRKEHEWEKVKNVFGNNNRMSYIYYNNLSRVFDSFLFQVMFALDQDEKGKWDQFTEDLKKKFEPSKTNTPTGKSQDAIEFLLDHLKDNALTCRDNNSNESCDVSKKVKTNPC
notes: also called CIDRa1.1 IT4var20_IT4; IT4var20 (1.1)
B9 yielded a Kd of 0.37 nM, a koff of 0.000123 s⁻¹ and a kon of 332000 M⁻¹ s⁻¹.

B10: CIDRα1.6a domain of PfEMP1 PFD1235w (domain or fragment)
chain: PECGVQCSGTTCTPKKVIHPNCKDKETYEPGDAKTTDITVLYSGDEEGDIAQKLQDFCNDKNKENDENYEKWQCYYKSSEINKCQMTPSSHKVPKHGYIMSFYAFFDLWVKNLLIDSINWKNDLTNCINNTNVTDCKNDCNTNCKCFENWAKTKENEWKKVKTIYKNENGNTNNYYKKLNNHFQGYFFHVMKELNKEEKWYKLMEDLKEKIDSSNLKNGTKDSEGAIKVLFDHLKDIAERCIDNNSKDSC
notes: also called CIDRa1.6a PFD1235w_3D7; PFD1235w (1.6a)
B10: the affinity, expressed as Kd, was 8.8 nM; the koff is 6.62e-05 s⁻¹; the kon is 7550 M⁻¹ s⁻¹.

B11: CIDRα1.4 domain of PfEMP1 DD2var32 (domain or fragment)
chain: PDCGVECNKGTCKKKPNDSNCRNNEAYIPPRDVTPTKINVLYSGDGHGDITKKLKGFCSNPTDYDGKNYENWQCYYKSSEDNKCQMTSLSQTLQKHHYVMSFYAFFDFWVRKFLIDTIKWENELKNCINNTTTDCSDGCNKHCVCFDKWVKQKEKEWNSIKKLFTKKNNVPQPYYTNINNLFDSFYFQVMYELNHDEAKWKELTQELRNKINSSKKNTDAADSKDAIELLLEYLKEKSTICKDNNTNEAC
notes: also called CIDRa1.4 DD2var32_DD2; DD2var32 (1.4)
Consider B11, for which the Kd amounted to 0.3 nM, the koff is 0.000343 s⁻¹ and the kon came out at 1.06e+06 M⁻¹ s⁻¹.

B12: CIDRα1.5b domain 1983-13 (patient isolate 1983) (domain or fragment)
chain: PDCGVECNGKTCTKKEETDENCGKPPNYTIPTDVTPTDINVLYSGDEQGYITKRLSEFCGPTKNYIGKKNELWKCYYDDKQKNNNNNNNICKLQPNAHIKNENIIINFDNFFEFWVRRFLNDTIDWKYDLNTCMNFTNTTKCNNNCNKNCKCFEQWVNIKKTEWKNVTEYFFKHDETSKKKYCEILKDIFENYYVEVIEKFYKGKHKWKERIEKLKNMDCSQVKIGTNASQDQIDIFLSNLKGDATQCTSKNPKSACNKPHAARIITRATTRNPC
B12 came in with a Kd of 169000 nM, a koff of 0.00047 s⁻¹ and a kon of 2.8 M⁻¹ s⁻¹.
